Laboratory results published in the Human Domainome abundance scans (Beltran et al. 2025).
± gives the uncertainty stated by the source.

B1: CD2-associated protein, residues 109 to 169; numbered along this chain, Q9Y5K6 (parent)
chain: KKRQCKVLFEYIPQNEDELELKVGDIIDINEEVEEGWWSGTLNNKLGLFPSNFVKELEVTD

Variants of: B1
Assay: abundance fitness (aPCA) (normalised: wild type 0, dead -1); higher = more abundant; growth selection in yeast, the domain comes from the species named
Conditions: Homo sapiens
With E31D the abundance fitness was 0.002 ± 0.23.
For Y11W, the abundance fitness was -0.318 ± 0.16.
In the case of K55N, the abundance fitness is reported as -0.193 ± 0.27.
E16L showed an abundance fitness of -0.403 ± 0.15.
D17A showed an abundance fitness of -0.142 ± 0.1.
Work on V54C yielded an abundance fitness of 0.125 ± 0.26.
For E34M, the abundance fitness was -0.045 ± 0.19.
In the case of L46I, the abundance fitness is reported as 0.169 ± 0.049.
Work on L48V yielded an abundance fitness of -0.067 ± 0.055.
W37F showed an abundance fitness of -0.201 ± 0.18.
V54N showed an abundance fitness of -0.84 ± 0.44.
Variant L57I has an abundance fitness of 0.241 ± 0.18.
Variant N44M has an abundance fitness of -0.318 ± 0.16.
For Q4L, the abundance fitness was 0.271 ± 0.21.
Work on R3I yielded an abundance fitness of -0.409 ± 0.1.
Work on T60Y yielded an abundance fitness of -0.489 ± 0.25.
Variant E16W has an abundance fitness of -0.317 ± 0.44.
E35Y gave an abundance fitness of -0.395 ± 0.3.
With L46T the abundance fitness was 0.151 ± 0.055.
With E35A the abundance fitness was -0.226 ± 0.2.
P50M gave an abundance fitness of -0.57 ± 0.21.
Work on E16P yielded an abundance fitness of -0.191 ± 0.16.
With V33T the abundance fitness was -0.452 ± 0.24.
E16G showed an abundance fitness of -0.303 ± 0.15.
In the case of S39M, the abundance fitness is reported as -0.126 ± 0.093.
For L46F, the abundance fitness was 0.092 ± 0.046.
Variant D17P has an abundance fitness of -0.518 ± 0.21.
For V54T, the abundance fitness was -0.222 ± 0.15.
V59M showed an abundance fitness of -0.219 ± 0.12.
Work on L8G yielded an abundance fitness of -0.133 ± 0.18.
In the case of D25G, the abundance fitness is reported as -0.835 ± 0.24.
In the case of F49R, the abundance fitness is reported as -1.3 ± 0.26.
With L46A the abundance fitness was 0.031 ± 0.069.
In the case of E18S, the abundance fitness is reported as -0.808 ± 0.2.
With N15I the abundance fitness was -0.851 ± 0.22.
With G47N the abundance fitness was -0.723 ± 0.41.
For W37S, the abundance fitness was -0.77 ± 0.24.
Variant L42H has an abundance fitness of -0.252 ± 0.32.
Y11Q gave an abundance fitness of -0.936 ± 0.44.
Work on D28A yielded an abundance fitness of -0.536 ± 0.19.
With N30D the abundance fitness was -0.123 ± 0.29.
Variant K45F has an abundance fitness of -0.695 ± 0.22.
Variant L19I has an abundance fitness of -0.063 ± 0.33.
Variant S51M has an abundance fitness of -0.138 ± 0.11.
For K55I, the abundance fitness was -0.077 ± 0.1.
Work on L21V yielded an abundance fitness of -0.678 ± 0.22.
With D61T the abundance fitness was -0.329 ± 0.26.
Work on E56T yielded an abundance fitness of -0.033 ± 0.097.
In the case of S39W, the abundance fitness is reported as -0.03 ± 0.12.
With G47I the abundance fitness was -0.584 ± 0.35.
L48F showed an abundance fitness of -0.19 ± 0.1.
In the case of D17R, the abundance fitness is reported as 0.076 ± 0.16.
In the case of S39Y, the abundance fitness is reported as -0.257 ± 0.12.
For L8P, the abundance fitness was -0.596 ± 0.29.
Variant F53R has an abundance fitness of 0.007 ± 0.079.
D61R gave an abundance fitness of -0.261 ± 0.18.
Variant N44R has an abundance fitness of -0.273 ± 0.16.
Work on K55V yielded an abundance fitness of -0.146 ± 0.078.
For N30V, the abundance fitness was 0.101 ± 0.15.
In the case of G24P, the abundance fitness is reported as -0.838 ± 0.46.
R3V gave an abundance fitness of -0.316 ± 0.076.
For G47D, the abundance fitness was -0.611 ± 0.19.
L21R gave an abundance fitness of -0.861 ± 0.26.
Q14T gave an abundance fitness of 0.079 ± 0.16.
For G24Y, the abundance fitness was -0.56 ± 0.4.
Variant E20H has an abundance fitness of -0.214 ± 0.32.
Work on N52C yielded an abundance fitness of 0.114 ± 0.13.
In the case of D61S, the abundance fitness is reported as -0.692 ± 0.34.
For K55R, the abundance fitness was 0.017 ± 0.064.
S51I gave an abundance fitness of -0.178 ± 0.27.
For K22V, the abundance fitness was -0.388 ± 0.28.
For N15S, the abundance fitness was -0.04 ± 0.086.
V7T showed an abundance fitness of -0.9 ± 0.31.
Work on T41V yielded an abundance fitness of 0.078 ± 0.09.
In the case of W38P, the abundance fitness is reported as -0.787 ± 0.31.
With E32M the abundance fitness was 0.178 ± 0.19.
G47F gave an abundance fitness of -0.784 ± 0.28.
E56L showed an abundance fitness of -0.058 ± 0.068.
For I27P, the abundance fitness was -0.61 ± 0.33.
In the case of K6V, the abundance fitness is reported as 0.278 ± 0.041.
Variant S51K has an abundance fitness of -0.12 ± 0.13.
For E34S, the abundance fitness was 0.016 ± 0.11.
C5V gave an abundance fitness of 0.23 ± 0.056.
